From EP4470554A1, “USE OF KALLIKREIN I OR DERIVATIVE THEREOF IN TREATMENT OF VCI, PSCI OR CSVD” (Zonhon Biopharma Institute, Inc., priority 2022, dated 2023)

Biological target: T1, LMWK (Homo sapiens, UniProt P01042)
T1 sequence (P01042 19-427 isoform P01042-2 limits assumed): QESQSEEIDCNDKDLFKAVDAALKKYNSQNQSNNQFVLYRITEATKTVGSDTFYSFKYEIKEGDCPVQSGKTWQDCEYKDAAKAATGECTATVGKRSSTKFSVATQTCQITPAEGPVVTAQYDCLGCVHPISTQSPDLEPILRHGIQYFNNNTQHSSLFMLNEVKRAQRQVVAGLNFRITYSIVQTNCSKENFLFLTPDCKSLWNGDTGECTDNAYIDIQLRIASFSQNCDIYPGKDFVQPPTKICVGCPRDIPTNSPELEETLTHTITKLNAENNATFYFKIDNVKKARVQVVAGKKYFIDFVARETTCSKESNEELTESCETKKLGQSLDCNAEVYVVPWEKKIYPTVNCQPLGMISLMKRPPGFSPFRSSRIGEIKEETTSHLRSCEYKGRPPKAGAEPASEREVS
Assay: In vitro activity evaluation based on natural substrates (enzymatic reaction with LMWK, bradykinin quantified by UPLC)
Type: biochemical
Settings: 37°C, 15min
Description: This example compared the enzymatic reaction to produce the effector molecule bradykinin at different ratios of substrate (LMWK) to enzyme (KLK1 or its PEG modified KLK1). The produced effector molecules were separated by reverse phase chromatography, the peak area of the product is calculated, and the curve of bradykinin production with different ratios of substrate to enzyme was drawn. Compare the amount of effector molecules produced by different test samples under the same reaction methods. Through this in vitro method simulating the in vivo effect, the in vivo effects of different tested samples were indirectly compared.
Kb was KLK1 extracted from porcine pancreas. PEG-Kb was PEG10K-modified Kb. PEG10K-hKLK1X1 and PEG-Kb can be prepared according to the conventional method of polyethylene glycol modified drugs.
The samples were mixed according to the following table (in PEG modified samples, the molar mass of the modified active substance was converted). The mixed samples were placed in a 37°C thermostat, incubated for 15min, accurately timed, and the reaction was terminated by adding 50% acetic acid solution according to the volume ratio of 10:1.
After the termination of the reaction, the sample was placed in a desktop centrifuge, centrifuged at 12000rpm for 5min, and the supernatant was taken. Detect with Waters ACQUITY UPLC H-Class, the mobile phase A was 0.1% TFA-H2O, the mobile phase B was 0.1% TFA-ACN, the detection wavelength was 214nm, the column temperature was 30°C, the sample loading volume was 10µl, the flow rate was 0.2ml/min, the running time was 35min, and the running gradient was as follows: Table 3
According to the UPLC chromatograph results of the enzymatic reaction mixture, the chromatographic peak with retention time of 13±0.5min(the peak position of bradykinin) was integrated and summed, and compared with the peak area of per unit mass bradykinin (1mg/ml, loading volume 10µl) to calculate the concentration of bradykinin generated by the enzymatic reaction. The amount of bradykinin produced was calculated according to the total reaction system in Table 2, and finally converted to the amount of bradykinin(µg/mg) produced per milligram of enzyme at each molar ratio.

Bradykinin production (Molar ratio of substrate to enzyme 1: 1): 11.28 µg/mg (enzyme) | Bradykinin production (Molar ratio of substrate to enzyme 5: 1): 44.63 µg/mg (enzyme) | Bradykinin production (Molar ratio of substrate to enzyme 10: 1): 79.99 µg/mg (enzyme) | Bradykinin production (Molar ratio of substrate to enzyme 15: 1): 103.85 µg/mg (enzyme) | Bradykinin production (Molar ratio of substrate to enzyme 20: 1): 119.89 µg/mg (enzyme)
Substance: PEG-Kb: PEG10K-modified Kb [reference compound]
